Measurements: US20180319872A1

Legend:
[1] = biological target: Clostridium difficile toxin B (TcdB) (Clostridium difficile) (UniProt P18177); assay: ELISA on plates coated with 1 ug/ml TcdB (TxB), OD450
[2] = biological target: Clostridium difficile toxin A (TcdA) (Clostridium difficile) (UniProt P16154); assay: cell-based or functional assay
[3] = biological target: Clostridium difficile toxin A (TcdA) (Clostridium difficile) (UniProt P16154); assay: ELISA on plates coated with 1 ug/ml TcdA (TxA), OD450

Clostridium difficile toxin A (TcdA) (Clostridium difficile), sequence (P16154 whole entry): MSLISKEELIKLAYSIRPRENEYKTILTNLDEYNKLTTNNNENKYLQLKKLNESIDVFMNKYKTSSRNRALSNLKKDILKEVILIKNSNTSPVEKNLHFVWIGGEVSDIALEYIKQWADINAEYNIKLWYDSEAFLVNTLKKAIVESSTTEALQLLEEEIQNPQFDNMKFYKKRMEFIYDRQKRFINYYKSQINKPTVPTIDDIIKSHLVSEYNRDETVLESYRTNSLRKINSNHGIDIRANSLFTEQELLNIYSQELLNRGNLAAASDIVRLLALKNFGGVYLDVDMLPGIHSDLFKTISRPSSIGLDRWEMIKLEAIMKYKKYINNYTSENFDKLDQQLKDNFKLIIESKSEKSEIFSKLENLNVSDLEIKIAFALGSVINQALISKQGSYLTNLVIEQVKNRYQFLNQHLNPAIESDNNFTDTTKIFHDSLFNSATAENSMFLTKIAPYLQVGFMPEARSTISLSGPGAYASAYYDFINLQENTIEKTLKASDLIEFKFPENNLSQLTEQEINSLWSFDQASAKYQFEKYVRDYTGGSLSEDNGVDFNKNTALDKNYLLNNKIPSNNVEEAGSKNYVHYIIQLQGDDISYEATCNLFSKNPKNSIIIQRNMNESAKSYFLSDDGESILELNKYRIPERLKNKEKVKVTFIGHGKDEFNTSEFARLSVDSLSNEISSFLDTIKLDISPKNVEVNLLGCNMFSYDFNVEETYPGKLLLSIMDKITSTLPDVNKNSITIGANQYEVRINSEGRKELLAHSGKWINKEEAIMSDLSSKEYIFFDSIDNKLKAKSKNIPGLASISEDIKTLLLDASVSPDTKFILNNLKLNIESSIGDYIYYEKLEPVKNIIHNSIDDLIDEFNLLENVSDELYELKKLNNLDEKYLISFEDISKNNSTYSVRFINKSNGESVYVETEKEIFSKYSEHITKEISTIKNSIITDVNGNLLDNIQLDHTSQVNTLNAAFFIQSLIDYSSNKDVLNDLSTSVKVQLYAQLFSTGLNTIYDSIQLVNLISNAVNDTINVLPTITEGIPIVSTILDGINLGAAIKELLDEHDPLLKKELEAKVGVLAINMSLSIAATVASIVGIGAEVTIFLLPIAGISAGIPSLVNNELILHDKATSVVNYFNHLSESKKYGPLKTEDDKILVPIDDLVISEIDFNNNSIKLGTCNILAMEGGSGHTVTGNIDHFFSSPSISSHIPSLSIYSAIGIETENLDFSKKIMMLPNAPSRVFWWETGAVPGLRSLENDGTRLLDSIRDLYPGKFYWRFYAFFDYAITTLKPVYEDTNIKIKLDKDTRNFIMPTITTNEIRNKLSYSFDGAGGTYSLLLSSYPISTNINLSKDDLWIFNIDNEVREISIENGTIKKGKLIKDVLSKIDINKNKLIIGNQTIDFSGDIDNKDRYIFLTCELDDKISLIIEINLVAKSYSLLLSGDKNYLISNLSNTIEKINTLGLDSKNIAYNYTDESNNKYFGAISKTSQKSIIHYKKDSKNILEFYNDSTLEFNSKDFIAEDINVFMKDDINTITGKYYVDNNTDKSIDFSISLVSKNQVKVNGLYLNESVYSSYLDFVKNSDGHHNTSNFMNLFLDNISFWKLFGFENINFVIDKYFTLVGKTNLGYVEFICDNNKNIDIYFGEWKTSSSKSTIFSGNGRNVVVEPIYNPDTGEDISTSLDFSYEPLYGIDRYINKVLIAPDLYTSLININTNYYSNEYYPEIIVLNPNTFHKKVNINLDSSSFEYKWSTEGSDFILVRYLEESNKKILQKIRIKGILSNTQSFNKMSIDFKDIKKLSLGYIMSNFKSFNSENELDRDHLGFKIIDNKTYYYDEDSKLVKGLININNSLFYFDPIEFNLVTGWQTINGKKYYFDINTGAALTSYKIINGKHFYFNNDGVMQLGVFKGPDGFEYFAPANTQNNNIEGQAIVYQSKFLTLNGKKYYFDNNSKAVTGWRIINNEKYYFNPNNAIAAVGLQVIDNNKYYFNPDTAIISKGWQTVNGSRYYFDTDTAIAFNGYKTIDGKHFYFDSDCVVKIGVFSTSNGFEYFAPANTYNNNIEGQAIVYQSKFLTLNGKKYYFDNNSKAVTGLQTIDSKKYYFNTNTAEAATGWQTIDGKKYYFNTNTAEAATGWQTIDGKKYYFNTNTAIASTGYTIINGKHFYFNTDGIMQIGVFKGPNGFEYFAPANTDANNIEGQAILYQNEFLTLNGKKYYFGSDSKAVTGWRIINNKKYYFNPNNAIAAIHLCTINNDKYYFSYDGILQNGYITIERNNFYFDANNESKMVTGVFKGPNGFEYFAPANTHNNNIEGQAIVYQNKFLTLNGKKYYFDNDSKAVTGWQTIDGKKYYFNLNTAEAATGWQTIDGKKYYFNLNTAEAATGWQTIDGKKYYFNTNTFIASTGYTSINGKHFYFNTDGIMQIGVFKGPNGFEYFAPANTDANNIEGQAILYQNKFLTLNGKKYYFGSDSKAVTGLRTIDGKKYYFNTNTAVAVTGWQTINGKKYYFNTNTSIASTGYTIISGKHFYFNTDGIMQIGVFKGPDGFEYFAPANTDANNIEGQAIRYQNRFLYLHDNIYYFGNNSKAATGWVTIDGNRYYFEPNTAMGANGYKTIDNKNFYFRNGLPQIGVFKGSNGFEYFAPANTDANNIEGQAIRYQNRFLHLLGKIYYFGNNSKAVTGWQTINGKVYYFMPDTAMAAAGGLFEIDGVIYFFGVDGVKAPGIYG
Clostridium difficile toxin B (TcdB) (Clostridium difficile), sequence (P18177 2-2366 limits assumed): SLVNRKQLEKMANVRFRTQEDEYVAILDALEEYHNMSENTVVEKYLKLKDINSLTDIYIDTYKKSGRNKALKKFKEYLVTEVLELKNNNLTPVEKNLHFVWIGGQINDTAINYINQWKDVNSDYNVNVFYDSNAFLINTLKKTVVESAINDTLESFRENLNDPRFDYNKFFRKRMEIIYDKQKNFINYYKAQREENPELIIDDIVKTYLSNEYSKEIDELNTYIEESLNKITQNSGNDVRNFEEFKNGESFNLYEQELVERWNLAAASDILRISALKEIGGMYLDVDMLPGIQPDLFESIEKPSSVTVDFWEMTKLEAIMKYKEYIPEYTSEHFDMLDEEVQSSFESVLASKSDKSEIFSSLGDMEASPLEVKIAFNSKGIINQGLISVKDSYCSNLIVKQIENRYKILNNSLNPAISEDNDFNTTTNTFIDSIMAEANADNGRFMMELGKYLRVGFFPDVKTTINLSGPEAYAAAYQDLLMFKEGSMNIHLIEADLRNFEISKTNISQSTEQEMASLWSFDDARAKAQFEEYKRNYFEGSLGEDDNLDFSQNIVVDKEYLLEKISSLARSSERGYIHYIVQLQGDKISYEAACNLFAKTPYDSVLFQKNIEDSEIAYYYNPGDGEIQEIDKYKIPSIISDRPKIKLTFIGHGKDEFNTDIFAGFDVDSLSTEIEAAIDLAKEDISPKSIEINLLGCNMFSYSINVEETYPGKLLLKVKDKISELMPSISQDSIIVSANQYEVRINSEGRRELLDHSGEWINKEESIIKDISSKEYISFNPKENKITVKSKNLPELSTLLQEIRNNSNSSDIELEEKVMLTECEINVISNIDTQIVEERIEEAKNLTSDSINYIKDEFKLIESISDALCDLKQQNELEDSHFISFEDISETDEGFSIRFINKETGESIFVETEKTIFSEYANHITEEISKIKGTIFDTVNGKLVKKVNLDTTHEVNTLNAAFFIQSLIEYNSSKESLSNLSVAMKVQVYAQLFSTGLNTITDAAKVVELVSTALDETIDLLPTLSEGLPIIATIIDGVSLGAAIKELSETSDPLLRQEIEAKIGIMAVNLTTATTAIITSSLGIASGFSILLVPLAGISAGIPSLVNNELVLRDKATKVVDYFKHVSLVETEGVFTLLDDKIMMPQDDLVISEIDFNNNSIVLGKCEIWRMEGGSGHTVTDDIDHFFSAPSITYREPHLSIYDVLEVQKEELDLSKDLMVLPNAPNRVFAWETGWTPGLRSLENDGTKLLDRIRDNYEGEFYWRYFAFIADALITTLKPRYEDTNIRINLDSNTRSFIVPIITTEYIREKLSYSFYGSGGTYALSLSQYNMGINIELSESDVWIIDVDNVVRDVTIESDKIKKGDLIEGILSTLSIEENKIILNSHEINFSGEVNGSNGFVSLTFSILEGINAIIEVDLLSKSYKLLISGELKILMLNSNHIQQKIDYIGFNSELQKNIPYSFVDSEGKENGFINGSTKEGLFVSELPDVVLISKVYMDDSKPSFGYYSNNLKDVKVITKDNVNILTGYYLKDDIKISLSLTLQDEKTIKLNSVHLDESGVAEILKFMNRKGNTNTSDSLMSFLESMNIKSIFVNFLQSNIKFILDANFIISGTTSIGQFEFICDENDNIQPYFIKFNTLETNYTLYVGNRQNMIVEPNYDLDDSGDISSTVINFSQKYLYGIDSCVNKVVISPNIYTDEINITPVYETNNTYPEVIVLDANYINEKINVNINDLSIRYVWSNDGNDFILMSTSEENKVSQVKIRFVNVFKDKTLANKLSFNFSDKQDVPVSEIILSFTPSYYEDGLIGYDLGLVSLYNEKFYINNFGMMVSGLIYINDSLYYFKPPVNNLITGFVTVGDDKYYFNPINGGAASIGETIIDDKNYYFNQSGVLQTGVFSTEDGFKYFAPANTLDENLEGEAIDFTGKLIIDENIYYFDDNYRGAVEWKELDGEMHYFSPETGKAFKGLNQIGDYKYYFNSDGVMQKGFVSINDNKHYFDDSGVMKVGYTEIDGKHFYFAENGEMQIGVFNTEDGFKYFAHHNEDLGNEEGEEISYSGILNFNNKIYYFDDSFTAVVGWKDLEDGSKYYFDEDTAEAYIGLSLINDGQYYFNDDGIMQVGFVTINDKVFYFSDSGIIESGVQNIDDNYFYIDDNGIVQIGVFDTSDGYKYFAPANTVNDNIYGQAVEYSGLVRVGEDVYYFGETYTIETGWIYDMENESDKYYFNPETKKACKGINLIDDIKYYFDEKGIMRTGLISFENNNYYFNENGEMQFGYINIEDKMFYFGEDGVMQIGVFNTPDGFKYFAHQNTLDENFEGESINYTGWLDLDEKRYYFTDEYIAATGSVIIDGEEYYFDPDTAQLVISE

Substance	EC50 (read off the curve) [1]	minimal dose protecting Vero cells from TcdA-induced cell rounding (5 ng/ml TcdA) [2]	EC50 (read off the curve) [3]
Merc Ab (antibody)	10 ng/mL		
Merck anti-TcdA human monoclonal antibody (actoxumab)		> 10 nM	2 ng/mL
